According to PMC4132020:

Biological target: Sso7d-IN with an 11 glycine linker (Sulfolobus solfataricus chromosomal protein Sso7d fused to the N-terminus of HIV-1 integrase) (Sulfolobus solfataricus | HIV-1)
Experiment: SEC; Superdex 200 PC 3.2/30, 20 mM HEPES pH 7.5, 20% glycerol, 5 mM DTT, 500 mM NaCl; free protein peak of a scaled-up intasome assembly mixture (with U5-25 DNA, CaCl2, 4 µM ZnCl2) after addition of 500 mM NaCl; position relative to protein standards

In the case of “Sso7d-IN with an 11 glycine linker (Sulfolobus solfataricus chromosomal protein Sso7d fused to the N-terminus of HIV-1 integrase) (enzyme)”, the stoichiometry N is reported as 4.
